Among the data in patent publication US20250163127A1 are MFI and MFI ratio to WT (ΔWT) values, retold here.

Experiment in all cases: flow cytometry, transfected cells
(In general: Flow cytometry measures light scatter and fluorescence of single cells or particles in a stream.)

Assay [1] concerns the target CTLA-4 (Homo sapiens (Human)) (UniProt P16410).
A further assay has as its target CD28 (human) (UniProt P10747).
Substrate in assay [2]: ICOS (Homo sapiens (Human)) (UniProt Q9Y6W8)

Sequence of ICOS (Homo sapiens (Human)) (Q9Y6W8 21-199 limits assumed): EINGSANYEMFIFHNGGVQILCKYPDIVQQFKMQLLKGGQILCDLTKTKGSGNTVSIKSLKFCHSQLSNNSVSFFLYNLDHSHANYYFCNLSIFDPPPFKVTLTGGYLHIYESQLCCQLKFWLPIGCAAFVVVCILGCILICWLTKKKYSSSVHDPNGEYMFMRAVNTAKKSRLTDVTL
Sequence of CTLA-4 (Homo sapiens (Human)) (P16410 36-223): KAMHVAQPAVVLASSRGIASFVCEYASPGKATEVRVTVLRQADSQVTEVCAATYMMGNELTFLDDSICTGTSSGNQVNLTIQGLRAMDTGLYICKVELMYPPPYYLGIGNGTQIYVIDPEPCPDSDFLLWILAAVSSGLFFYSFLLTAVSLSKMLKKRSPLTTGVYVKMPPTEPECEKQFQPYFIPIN

B1: ICOSL-Fc N52S/N57Y/Q100V (Fc fusion)
chain: DTQEKEVRAMVGSDVELSCACPEGSRFDLNDVYVYWQTSESKTVVTYHIPQSSSLEYVDSRYRNRALMSPAGMLRGDFSLRLFNVTPQDEQKFHCLVLSVSLGFQEVLSVEVTLHVAANFSVPVVSAPHSPSQDELTFTCTSINGYPRPNVYWINKTDNSLLDQALQNDTVFLNMRGLYDVVSVLRIARTPSVNIGCCIENVLLQQNLTVGSQTGNDIGERDKITENPVSTGEKNAAT
As to B1, the values for the MFI (in assay [1]; with CD28 (human); in assay [2]) were 305000 MFI, 126000 MFI and 219000 MFI, respectively. The values for the MFI ratio to WT (ΔWT) (in assay [1]; with CD28 (human); in assay [2]) were 0.92 fold, 5.7 fold and 1.03 fold, respectively.

B2: ICOSL-Fc N52L/N57H/Q100R (Fc fusion)
chain: DTQEKEVRAMVGSDVELSCACPEGSRFDLNDVYVYWQTSESKTVVTYHIPQLSSLEHVDSRYRNRALMSPAGMLRGDFSLRLFNVTPQDEQKFHCLVLSRSLGFQEVLSVEVTLHVAANFSVPVVSAPHSPSQDELTFTCTSINGYPRPNVYWINKTDNSLLDQALQNDTVFLNMRGLYDVVSVLRIARTPSVNIGCCIENVLLQQNLTVGSQTGNDIGERDKITENPVSTGEKNAAT
Turning to B2, the MFI is 353000 MFI in assay [1], 141000 MFI in the assay with CD28 (human) and 250000 MFI in assay [2]. Moreover, the MFI ratio to WT (ΔWT) in assay [1] worked out at 1.07 fold; with CD28 (human), 6.3 fold; in assay [2], 1.18 fold.

B3: ICOSL-Fc N52K/N57Y/Q100R (Fc fusion)
chain: DTQEKEVRAMVGSDVELSCACPEGSRFDLNDVYVYWQTSESKTVVTYHIPQKSSLEYVDSRYRNRALMSPAGMLRGDFSLRLFNVTPQDEQKFHCLVLSRSLGFQEVLSVEVTLHVAANFSVPVVSAPHSPSQDELTFTCTSINGYPRPNVYWINKTDNSLLDQALQNDTVFLNMRGLYDVVSVLRIARTPSVNIGCCIENVLLQQNLTVGSQTGNDIGERDKITENPVSTGEKNAAT
On to B3, for which the results for the MFI (in assay [1]; in the assay with CD28 (human); in assay [2]) were 233000 MFI, 141000 MFI and 199000 MFI, respectively. Also, the MFI ratio to WT (ΔWT) in assay [1] worked out at 0.71 fold; with CD28 (human), 6.3 fold; in assay [2], 0.94 fold.

B4: ICOSL-Fc N52T/N57H/Q100S (Fc fusion)
chain: DTQEKEVRAMVGSDVELSCACPEGSRFDLNDVYVYWQTSESKTVVTYHIPQTSSLEHVDSRYRNRALMSPAGMLRGDFSLRLFNVTPQDEQKFHCLVLSSSLGFQEVLSVEVTLHVAANFSVPVVSAPHSPSQDELTFTCTSINGYPRPNVYWINKTDNSLLDQALQNDTVFLNMRGLYDVVSVLRIARTPSVNIGCCIENVLLQQNLTVGSQTGNDIGERDKITENPVSTGEKNAAT
Take B4: the MFI is 378000 MFI in assay [1], 143000 MFI with CD28 (human) and 259000 MFI in assay [2]. Further, the MFI ratio to WT (ΔWT) in assay [1] was 1.14 fold; in the assay with CD28 (human) it was 6.4 fold; in assay [2], 1.22 fold.

B5: ICOSL-Fc N52R/N57L/Q100S (Fc fusion)
chain: DTQEKEVRAMVGSDVELSCACPEGSRFDLNDVYVYWQTSESKTVVTYHIPQRSSLELVDSRYRNRALMSPAGMLRGDFSLRLFNVTPQDEQKFHCLVLSSSLGFQEVLSVEVTLHVAANFSVPVVSAPHSPSQDELTFTCTSINGYPRPNVYWINKTDNSLLDQALQNDTVFLNMRGLYDVVSVLRIARTPSVNIGCCIENVLLQQNLTVGSQTGNDIGERDKITENPVSTGEKNAAT
Consider B5, for which the MFI in assay [1] stood at 289000 MFI; with CD28 (human) it was 112000 MFI; in assay [2], 231000 MFI. Also, the results for the MFI ratio to WT (ΔWT) (in assay [1]; with CD28 (human); in assay [2]) were 0.88 fold, 5 fold and 1.09 fold, respectively.

B6: ICOSL-Fc N52R/N57Y/Q100R (Fc fusion)
chain: DTQEKEVRAMVGSDVELSCACPEGSRFDLNDVYVYWQTSESKTVVTYHIPQRSSLEYVDSRYRNRALMSPAGMLRGDFSLRLFNVTPQDEQKFHCLVLSRSLGFQEVLSVEVTLHVAANFSVPVVSAPHSPSQDELTFTCTSINGYPRPNVYWINKTDNSLLDQALQNDTVFLNMRGLYDVVSVLRIARTPSVNIGCCIENVLLQQNLTVGSQTGNDIGERDKITENPVSTGEKNAAT
B6: the MFI in assay [1] is 4270 MFI; with CD28 (human) it was 3280 MFI; in assay [2] it was 6100 MFI. In addition, the figures for the MFI ratio to WT (ΔWT) (in assay [1]; with CD28 (human); in assay [2]) were 0.01 fold, 0.1 fold and 0.03 fold, respectively.

B7: ICOSL-Fc N52R/N57W/Q100K (Fc fusion)
chain: DTQEKEVRAMVGSDVELSCACPEGSRFDLNDVYVYWQTSESKTVVTYHIPQRSSLEWVDSRYRNRALMSPAGMLRGDFSLRLFNVTPQDEQKFHCLVLSKSLGFQEVLSVEVTLHVAANFSVPVVSAPHSPSQDELTFTCTSINGYPRPNVYWINKTDNSLLDQALQNDTVFLNMRGLYDVVSVLRIARTPSVNIGCCIENVLLQQNLTVGSQTGNDIGERDKITENPVSTGEKNAAT
Turning to B7, the MFI stood at 477000 MFI in assay [1], 131000 MFI with CD28 (human) and 349000 MFI in assay [2]. The MFI ratio to WT (ΔWT) amounted to 1.44 fold in assay [1], 5.9 fold with CD28 (human) and 1.65 fold in assay [2].

B8: ICOSL-Fc N52T/N57H/Q100A (Fc fusion)
chain: DTQEKEVRAMVGSDVELSCACPEGSRFDLNDVYVYWQTSESKTVVTYHIPQTSSLEHVDSRYRNRALMSPAGMLRGDFSLRLFNVTPQDEQKFHCLVLSASLGFQEVLSVEVTLHVAANFSVPVVSAPHSPSQDELTFTCTSINGYPRPNVYWINKTDNSLLDQALQNDTVFLNMRGLYDVVSVLRIARTPSVNIGCCIENVLLQQNLTVGSQTGNDIGERDKITENPVSTGEKNAAT
For B8, the results for the MFI (in assay [1]; with CD28 (human); in assay [2]) were 350000 MFI, 113000 MFI and 220000 MFI, respectively. In addition, the MFI ratio to WT (ΔWT) in assay [1] was 1.06 fold; with CD28 (human), 5 fold; in assay [2] it was 1.04 fold.

B9: ICOSL-Fc N52C/N57E/Q100S (Fc fusion)
chain: DTQEKEVRAMVGSDVELSCACPEGSRFDLNDVYVYWQTSESKTVVTYHIPQCSSLEEVDSRYRNRALMSPAGMLRGDFSLRLFNVTPQDEQKFHCLVLSSSLGFQEVLSVEVTLHVAANFSVPVVSAPHSPSQDELTFTCTSINGYPRPNVYWINKTDNSLLDQALQNDTVFLNMRGLYDVVSVLRIARTPSVNIGCCIENVLLQQNLTVGSQTGNDIGERDKITENPVSTGEKNAAT
Take B9: the MFI in assay [1] came to 10600 MFI; with CD28 (human), 13400 MFI; in assay [2], 125000 MFI. Also, the MFI ratio to WT (ΔWT) in assay [1] came out at 0.03 fold; with CD28 (human) it was 0.6 fold; in assay [2], 0.59 fold.

B10: ICOSL-Fc N52R/N57F/Q100T (Fc fusion)
chain: DTQEKEVRAMVGSDVELSCACPEGSRFDLNDVYVYWQTSESKTVVTYHIPQRSSLEFVDSRYRNRALMSPAGMLRGDFSLRLFNVTPQDEQKFHCLVLSTSLGFQEVLSVEVTLHVAANFSVPVVSAPHSPSQDELTFTCTSINGYPRPNVYWINKTDNSLLDQALQNDTVFLNMRGLYDVVSVLRIARTPSVNIGCCIENVLLQQNLTVGSQTGNDIGERDKITENPVSTGEKNAAT
For the molecule B10, the results for the MFI (in assay [1]; with CD28 (human); in assay [2]) were 358000 MFI, 127000 MFI and 270000 MFI, respectively. Moreover, the MFI ratio to WT (ΔWT) came to 1.08 fold in assay [1], 5.7 fold in the assay with CD28 (human) and 1.27 fold in assay [2].
